Measured values: the DeepSol protein solubility set

assay: soluble on expression in E. coli; label from the status in PepcDB or PDB records

Sequence	soluble on expression in E. coli
METPVPKPRTKFEPSSPEPTLPPRPPVKPPRAVANSTAVQNFGNVLGELRLNLNETISSQDPPGIGFIEVSPGTSMSPPQRHAPPPPRPPPPAGWKQHPVIPERIQLNRPLPSLPIDVSLTPVYSEPSTSSPSSTNCYENHNSSVVENPLYLSLDTYRSISGITPSPSNAPTTSPDCDELREWLTEEEENESCSSSRPENLNASIPAPIPGDDSRPSIDSEENPYTPCPRRSDYDNSEFIGSTIDPFDDSFYTDNTTNNSHQNLYVSPQFVKEKTKSECDRYENVVEICSSPDPPPTHLYVNVPPIYPSADNIISSESDDVFRDEGKMKIDGSSITFVGFVSLTSSKKEKRLHCRLRNMQLSFHDDEDSTEPSNGTFDIKGIYLFRHMASDTPYILIHVGEKRNVISFIPEDPPNLWMFFLSEAWLSLNYGLTSVLRDADELTICGITWIKHGTTGEWKICSAGINGLTLHYMLVDAKDRIYNRNSERSDAGTSFMSTVGSIIGDELVEVDLRKVMTMRERIDKSEFCPNARHKRGPFSITLHGVTLYIDSRDDSTTSHWYEAIEALLKRPATRLENLRLTGDNIPVIVDKCIRFVSAYGMKCEGIYRRNGKVTEAKTILTKLTEDPVGYYPVHENDETVYAVADVLRQFFRKLDAPLFPSSSQADLFDLATESQSDELCARYAQLINTFELVHRSTLKKLIGHLKNVSEHAQENRASVENLAKVFAASLFLTDAMDEKVFSESYNHQINVLIHLTTGYDVVFQISIEEELSRQMVNDAEKKSFNAKKPSPDFIVAIHVWEKENRPFNVKMSLASEEVCREAIAKRGFDGPPDSPYAIFECLAGGNLIRRLPNAQKMSKCVLQWIDWNCKDAYLLFDHDKYQFNGTDMSCFTGKIKIAEPGSRTFKSYEVKIENGTSIVAFRNEKLWKAWPMDDSIWYVGTEPTRKSPNLFNATMICSTKTGYSSSRFPGFCFSFKEETDRNRWLTALSHFTKSIDSEPLVYI	not soluble
MSILPSNTPLYSHPLPQIEQWLKDQGCQQDENELHCWRLQKPSWQAEIWLDIEQITVRYIQAGENGQNIQRSFKYSLSRQDIEQAIFCGP	not soluble
MSTSEKRKGMQTDMPELQAMISQRIQEQNYREVLKGVTAFPWCTDDPCVFRTAAGNLWIAVGHVNRKSEVPKFSYKNFLCAYLLGNAEDGVAAYLDLQAAAWKGVELVMFSSHADGLSALYGDGRANDRDLLYRFFGRNYVFAVGFRKKEEKEQASAGDKIFIASVDAVGFGEIDKDGKLAVINKIMSYEQFFDDEDLKPMWGALAVKLFILKCNGYRESAKDRKALDILLHDMMKLCKSMELTAGLDDQKRKHPESAGINPQMALLKNEAMVKVHNGMDEKVKSNLPLLEWAVNHLPAKLLQEFGTFVESVPQIKEPTAYDNLMSLESVLKEMDRLFKKAAEEENLSLTKNSMTDG	not soluble
GPGSMGSGCSTESSTDVRCSFVGLMDEKKESWRGRLLGDIGKDPTGVTRDFPRTQVYVAAPNRNNYYREKQDHVSVLVLKDKEDESKYFSDRNERVRESLELLVELCGEDSSVIKSEWEKQQKDIPDSSSLLMTVLLESGMMRATEANTENGGAGGETDAVTNIQNGGGGYAPKYTVHSKALRLMQYMVQSVAFFSTQHVTDALRFSWCKHMQDVSWAVYVYTEGGACGKERNSSDEILVLRHMHTLRHYVGQSERSTHPRFEVDWACTFHIDLKRLLDANNTAAKEATFAPEGEVQRIDGELLAARIESPNRKLCRITSTWKKRRSELEGRLMECFGVELTKVDVLDENGPLSALNSGG	not soluble
MPLTTNTILICAGGACISAGEKSVKDAFEEELRKYGLDEVVRVIETGCMGACTLGPIAVIYPESVFYQKLTPDAAREIVEEHILKGRIVEKYLYKASEGKPVPRVHEEVPFFKKQVRIVTRNLGVIDPTKIEEYIARDGYFALAKALQMKPEDVIKEIKDSGLRGRGGAGFPTGLKWELAARQKAEKKFVVCNADEGDPGAFMDRSVLEGDPHAVIEGMAIAAYAIGAQKGFVYVRAEYPLAIERLNIALNQAREYGFLGGNIMGTDFSFDIEIRIGAGAFVCGEETALMASIEGERGQPKVKPPYPVEKGLWGYPTVINNVETLANVPWIIRNGAKEFRKYGTENSPGTKVFALAGKVKNTGLVEVPMGITLRELIYEIGGGIAGDKKLKAIQTGGPSGGCIPAEYVDTPVDFESLQKLGAIMGSGGMIVMDEDDCMVDVARFFLEFTVEESCGKCTPCREGTKKMLEILEKITSGEGTEEDIEELEKLAHVVKDTSLCGLGQTAPNPVLSTLRYFRDEYLAHVKEKRCPSKKCKALISYVIDPEKCVGCTACARVCPVQCISGQVRQPHVIDQAECVRCGSCIEVCRFGAISKVTPALPVEEAVEAAALEHHHHHH	not soluble
MEGLGRSCLWLRRELSPPRPRLLLLDCRSRELYESARIGGALSVALPALLLRRLRRGSLSVRALLPGPPLQPPPPAPVLLYDQGGGRRRRGEAEAEAEEWEAESVLGTLLQKLREEGYLAYYLQGGFSRFQAECPHLCETSLAGRAGSSMAPVPGPVPVVGLGSLCLGSDCSDAESEADRDSMSCGLDSEGATPPPVGLRASFPVQILPNLYLGSARDSANLESLAKLGIRYILNVTPNLPNFFEKNGDFHYKQIPISDHWSQNLSRFFPEAIEFIDEALSQNCGVLVHCLAGVSRSVTVTVAYLMQKLHLSLNDAYDLVKRKKSNISPNFNFMGQLLDFERSLRLEERHSQEQGSGGQASAASNPPSFFTTPTSDGAFELAPT	soluble
MGSDKIHHHHHHMDIKQLRYFVEVARREHISDAALELNIAQSAISRQITQLEKELGVTLFKRSGRNIILTVEGRQLLSQATQILELMDKTIHSFQQHVSHNQQTIYIGYEESDASQMILPLIQTFEQQSNSTMIPQLTKHDKLLDQILSNQLDLAITEFTPVLERETHLRVMPLFEENYYMYVPKSHPLAMTVHPPLSQFTNQSLYCLEPMTSSIKSKLIEKTKAQVRMISDMKLAQHILSHNKGFIISSQNSLLYDHVNWTKIPLNHTELKRMLCVVMRKDNKKNDINIAWNLICTLLNKSTIY	not soluble
MPDEKDKHEGTWLQWPHEYTYGEEYKKEVEPIWVKMASALTEGEKVHIVAYDQEEKERINNLLTDEGLNMEKIDFFIAPTDDVWARDSGPIFVYDSNKNLKILDPAFNGWGKKTPYKNDAQIRKNVSKQSGIERVDWGKFVLEGGAIELDSNGTALLTRSAVTNKNRNPDLSEKEIEKYISDLGVSNFIWLDGVPNLDITDFHIDGFAKFHNKSTIVTMKEDDLAEWGLSNKDMDTLLDAKNASGQKYKYEYLPLSKEKVALENGKTLDYKGSYINYYIGNTVVLVPNYNDPNDKIANDTIQKLYPDRKVVGIDVRELYKNGGMIHCVTQQQPIALK	not soluble
GMSADIVFDRGSPSDIDEIKTFTSNTWKVGYYTDLYSKLADTGTMDDYVDKVIERWVNDGSVYVLRVSGRPVATIHMEKLPDGSVMLGGLRVHPEYRGSRLGMSIMQETIQFLRGKTERLRSAVYSWNEPSLRLVHRLGFHQVEEYPIYTFQGGSTAVPALKPVNERYAGRWRCFFIDWKYMCSDDPDIIHEEYSNNLIVDGSTFVYFDIYEGGIDLFVNDSDDASSFIEKYRSMNGRITFYVRKALANGLPYVPASSLTVWEYRY	soluble
SMSEATPCIKAISPSEGWTTGGATVIIIGDNFFDGLQVVFGTMLVWSELITPHAIRVQTPPRHIPGVVEVTLSYKSKQFCKGAPGRFVYTALNEPTIDYGFQRLQKVIPRHPGDPERLPKEVLLKRAADLVEALYGMPHNNQEIILKRAADIAEALYSV	soluble
GSHMKNSVSVDLPGEMKVLVSKEKNKDGKYDLIATVDKLELKGTSDKNNGSGVLEGVKADKSKVKLTISDDLGQTTLEVFKEDGKTLVSKKVTSKDKSSTEEKFNEKGELSEKKITRADKSSTEEKFNEKGELSEKKITRADKSSTEEKFNEKGELSEKKITRADKSSTEEKFNEKGELSEKKITRADKSSTEEKFNEKGELSEKKITRADKSSTEEKFNEKGEVSEKIITRADGTRLEYTGIKSDGSGKAKEVLKGYVLEGTLTAEKTTLVVKEGTVTLSKNISKSGEVSVELNDTDSSAATKKTAAWNSGTSTLTITVNSKKTKDLVFTKENTITVQQYDSNGTKLEGSAVEITKLDEIKNALK	soluble
MVKKITVYTAFGQFLKMVELQMEQEMEKMNEIETDKLPIDHQLSDYQNNIESGNDRQVQSCPVDVSIPKEVMKCASCPLLCFNCSVQMPVSPVPTTIESRKINETTQLMMEFWKIVASKSEEEKLPSLFENVEGLFSVPFSTFGTWDDDTLSGVTSLNFEKSDEQLSEQDDDKTTVWSSNFPSAHVLTVYENSEQKTDEMADDEMSDTTSSFLSTLSTTMSAQVPALHLLQRVQLQRSVIKKQKKIIDSFSELQNLNKKLADLRKKHRD	not soluble
MPRHETDCRYFANGYCSKGNTCTFTHDVATRNENICHFNLVGKCSYGRACRFLHTRPRNDELPSCSTPQTSQNQQNLQNSGQRVRPKQLPELKFNAQAAEFVPRWKMPQRGPVTSYAGAAASADHGESSSSFQSSHEQAQLMMCPYHQKSGDCNRQDMDCPFAHGNYCDMCQQWSLHPYNAELRKKHENECVANHTTEMERAFLLQKTEQKTCGICMENIFEKNLRFGILNGCQHCFCLDCIRQWRSKDQENVELATKTVRSCPECRQHSDYVIPSLFWVESGQEKDLLIEMYKENTKRKICKYYSNERSRGACPFGNKCFYKHQLPDGSIDPGEAPSSRRRPRLVDFLFDDNSDSDEETFRRFQEEHEEEQEELLRFVAETLPEADEESELFRQITEVLRHYQISGHRRGFQ	not soluble
SALAVEADPAADRVSSLSNVSGVLGSQWGDEGKGKLVDVLAPRFDIVARCQGGANAGHTIYNSEGKKFALHLVPSGILHEGTLCVVGNGAVIHVPGFFGEIDGLQSNGVSCDGRILVSDRAHLLFDLHQTVDGLREAELANSFIGTTKRGIGPCYSSKVTRNGLRVCDLRHMDTFGDKLDVLFEDAAARFEGFKYSKGMLKEEVERYKKFAERLEPFIADTVHVLNESIRQKKKILVEGGQATMLDIDFGTYPFVTSSSPSAGGICTGLGIAPRVIGDLIGVVKAYTTRVGSGPFPTELLGEEGDVLRKAGMEFGTTTGRPRRCGWLDIVALKYCCDINGFSSLNLTKLDVLSGLPEIKLGVSYNQMDGEKLQSFPGDLDTLEQVQVNYEVLPGWDSDISSVRSYSELPQAARRYVERIEELAGVPVHYIGVGPGRDALIYK	soluble
MSTVGLFHFPTPLTRICPAPWGLRLWEKLTLLSPGIAVTPVQMAGKKDYPALLSLDENELEEQFVKGHGPGGQATNKTSNCVVLKHIPSGIVVKCHQTRSVDQNRKLARKILQEKVDVFYNGENSPVHKEKREAAKKKQERKKRAKETLEKKKLLKELWESSKKVH	soluble
MGSDKIHHHHHHMIREIRITSFEGLISEMESLGKELWFRGVTNKNYSLIPGSVRFDLNGWKEVSAVLDFMASYQNHHDYIESNWELYSLMQHYGFPTRLLDWSTSVIVALYFALDGDADVDDAGSAIDRVVWGMTTGMLNNLNFLNRRVIPTAIGKATTGEKYLPSPLRKKEGDDFEFEKNPLAVKMPFTNKRVSAQKGCFTIHGSNPKGIEEIMEENGLGSELIKFVFDEEAAMAIRKTLYKLDINEDDIYQDLNSLSKRIVLVNPNWTLLVENFQILQVTDHH	not soluble
METALVSIIMPMYNAGKFLSKSIESVLEQTYQNWELLLIDDGSKDDSIDIALAFMEKDSRIFLLKNEQNMGIAKTRNKGIEASKGQYIAFLDSDDLWLPNKLEVQVKWMEEKKLLFTCSSYFVCNENGNITHERNFSEGPQTYQDLLKTNTIGCLTVVVESNLLKRHLMPDLKHEDYATWLNILKEINTVYFINEKLAIYRKLTTSTSSNKWNTISWVWKILRQNEQFSVIKSSFYLMRFLFYTTFKYAKNELEHHHHHH	soluble
MTSTSTPPGLARFNDLGEHAALAALHEACASTTWARRLIAARPYATADDLYTASDAAMAELTAADLAQAMAGHPPIGRPKPGDPTSAREQRGMAGASEELKADMLELNLAYQEKFGHVFLICATGRTGEQMRDAVRERIGNAPEREREIVRTELGKINRIRLARLVEEDAHALEHHHHHH	soluble
